One block for each binder: values may come before it.
B4: human factor H (other, UniProt P08603 19-1231, looked up)
chain: EDCNELPPRRNTEILTGSWSDQTYPEGTQAIYKCRPGYRSLGNVIMVCRKGEWVALNPLRKCQKRPCGHPGDTPFGTFTLTGGNVFEYGVKAVYTCNEGYQLLGEINYRECDTDGWTNDIPICEVVKCLPVTAPENGKIVSSAMEPDREYHFGQAVRFVCNSGYKIEGDEEMHCSDDGFWSKEKPKCVEISCKSPDVINGSPISQKIIYKENERFQYKCNMGYEYSERGDAVCTESGWRPLPSCEEKSCDNPYIPNGDYSPLRIKHRTGDEITYQCRNGFYPATRGNTAKCTSTGWIPAPRCTLKPCDYPDIKHGGLYHENMRRPYFPVAVGKYYSYYCDEHFETPSGSYWDHIHCTQDGWSPAVPCLRKCYFPYLENGYNQNYGRKFVQGKSIDVACHPGYALPKAQTTVTCMENGWSPTPRCIRVKTCSKSSIDIENGFISESQYTYALKEKAKYQCKLGYVTADGETSGSITCGKDGWSAQPTCIKSCDIPVFMNARTKNDFTWFKLNDTLDYECHDGYESNTGSTTGSIVCGYNGWSDLPICYERECELPKIDVHLVPDRKKDQYKVGEVLKFSCKPGFTIVGPNSVQCYHFGLSPDLPICKEQVQSCGPPPELLNGNVKEKTKEEYGHSEVVEYYCNPRFLMKGPNKIQCVDGEWTTLPVCIVEESTCGDIPELEHGWAQLSSPPYYYGDSVEFNCSESFTMIGHRSITCIHGVWTQLPQCVAIDKLKKCKSSNLIILEEHLKNKKEFDHNSNIRYRCRGKEGWIHTVCINGRWDPEVNCSMAQIQLCPPPPQIPNSHNMTTTLNYRDGEKVSVLCQENYLIQEGEEITCKDGRWQSIPLCVEKIPCSQPPQIEHGTINSSRSSQESYAHGTKLSYTCEGGFRISEENETTCYMGKWSSPPQCEGLPCKSPPEISHGVVAHMSDSYQYGEEVTYKCFEGFGIDGPAIAKCLGEKWSHPPSCIKTDCLSLPSFENAIPMGEKKDVYKAGEQVTYTCATYYKMDGASNVTCINSRWTGRPTCRDTSCVNPPTVQNAYIVSRQMSKYPSGERVRYQCRSPYEMFGDEEVMCLNGNWTEPPQCKDSTGKCGPPPPIDNGDITSFPLSVYAPASSVEYQCQNLYQLEGNKRITCRNGQWSEPPKCLHPCVISREIMENYNIALRWTAKQKLYSRTGESVEFVCKRGYRLSSRSHTLRTTCWDGKLEYPTCAKR
notes: mature; Purified plasma FH (CompTech) in SPR, bridging ELISA and hybridoma screening (biotinylated); FH of healthy donor or aHUS patient serum in the C3b ELISA and the functional assays. aHUS sera carry a heterozygous mutation in CCP 20 that is not specified; also called FH; human purified factor H

Assays:
[1] = target: B4; assay: bridging ELISA: FH coat, biotinylated FH for detection
Procedure: One possible mechanism for the observed increased FH inhibitory function upon incubation with anti-FH.07 is multimerization of FH by crosslinking via the antibody, thereby increasing the avidity of FH for the surface. To test this possibility, we generated monovalent Fab′ fragments of anti-FH.07. If crosslinking of FH is the cause of the observed increased FH function, monovalent Fab′ fragments are expected to show no potentiating effect. With a bridging ELISA we first checked whether the generated Fab′ fragments were indeed completely monovalent and not capable to crosslink FH molecules. To this end an ELISA plate was coated with FH and biotinylated FH was used for detection. […] The anti-FH.07 F(ab′)₂ and Fab′ fragments were then tested in the C3 deposition assays on zymosan and LPS coated plates. To our surprise we observed the same potentiating effect of the Fab′ fragments on FH function. […] Therefore we concluded that the effect of anti-FH.07 was not due to crosslinking of FH molecules by the monoclonal antibody.

[2] = target: T1, recombinant FH CCP 15-18 (human, UniProt P08603 868-1104, 125I label); assay: radioimmunoassay, moAb on RM-19 sepharose, 125I-labelled fragment
T1 construct: domain: CCP 15-18; also called recombinant FH CCP domains 15-18
T1 sequence (looked up): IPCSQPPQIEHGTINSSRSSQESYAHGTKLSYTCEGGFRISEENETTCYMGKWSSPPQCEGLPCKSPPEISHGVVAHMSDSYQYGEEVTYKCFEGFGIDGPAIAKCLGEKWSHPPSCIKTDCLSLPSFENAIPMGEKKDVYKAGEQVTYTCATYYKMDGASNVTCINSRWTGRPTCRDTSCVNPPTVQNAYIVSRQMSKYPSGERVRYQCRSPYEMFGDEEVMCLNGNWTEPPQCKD
Procedure: (§1) Reactivity of FH specific moAbs was tested with recombinant human FH fragments composed of multiple CCPs. To this end, fifty microliter of 100 μg/ml anti-FH moAbs was mixed with 0.5 ml of 2 mg/ml RM-19 coupled-sepharose (25 μg moAb per 1 mg CnBr-Sepharose). The FH fragments were labelled with ¹²⁵I and 100 μl (20000 c/30 sec) was added to each sample followed by incubation O/N. The assay was performed in PBS with 0.1% (w/v) Tween-20 and 0.1% (w/v) BSA (PTB). Samples were washed 5 times with PBS with 0.1% (w/v) Tween-20 and counted for 30 seconds. Sepharose bound radioactivity was measured and compared to total input (set to 100%).
(§2) In order to map the binding site of anti-FH.07, we tested the reactivity of this moAb towards a panel of radiolabeled recombinant CCP domains or purified human FH. Binding of the moAbs was tested in a radioimmunoassay and was related to the input (100%).

[3] = target: T2, recombinant FH CCP 15-19 (human, UniProt P08603 868-1165, 125I label); assay: as above
T2 construct: domain: CCP 15-19; also called recombinant FH CCP domains 15-19
T2 sequence (looked up): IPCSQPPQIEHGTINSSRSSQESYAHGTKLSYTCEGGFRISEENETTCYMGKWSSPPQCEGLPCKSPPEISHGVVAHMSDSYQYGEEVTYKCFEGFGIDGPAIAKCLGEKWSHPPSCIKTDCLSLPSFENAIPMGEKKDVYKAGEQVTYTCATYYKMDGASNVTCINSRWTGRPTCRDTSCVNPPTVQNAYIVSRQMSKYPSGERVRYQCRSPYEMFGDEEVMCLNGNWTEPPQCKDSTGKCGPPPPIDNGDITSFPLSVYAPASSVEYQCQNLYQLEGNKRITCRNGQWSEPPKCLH
Procedure: as §1, §2

[4] = target: T3, recombinant FH CCP 18-20 (human, UniProt P08603 1046-1231, 125I label); assay: as above
T3 construct: domain: CCP 18-20; also called recombinant FH CCP domains 18-20
T3 sequence (looked up): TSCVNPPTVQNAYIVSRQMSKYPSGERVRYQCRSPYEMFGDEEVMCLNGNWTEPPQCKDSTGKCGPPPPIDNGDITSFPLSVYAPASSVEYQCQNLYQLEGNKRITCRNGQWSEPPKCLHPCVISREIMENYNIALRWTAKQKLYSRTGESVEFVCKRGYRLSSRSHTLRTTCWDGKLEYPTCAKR
Procedure: as §1, §2

[5] = target: T4, C3b (UniProt P01024 23-667; P01024 749-1663, limits assumed); assay: SPR, Fab′ injected without FH over immobilised C3b
T4 construct: domain: C3b; C3b has two disulfide-linked chains (beta and alpha′); also called purified C3b
T4 sequence (P01024 23-667 limits assumed, chain 1 of 2): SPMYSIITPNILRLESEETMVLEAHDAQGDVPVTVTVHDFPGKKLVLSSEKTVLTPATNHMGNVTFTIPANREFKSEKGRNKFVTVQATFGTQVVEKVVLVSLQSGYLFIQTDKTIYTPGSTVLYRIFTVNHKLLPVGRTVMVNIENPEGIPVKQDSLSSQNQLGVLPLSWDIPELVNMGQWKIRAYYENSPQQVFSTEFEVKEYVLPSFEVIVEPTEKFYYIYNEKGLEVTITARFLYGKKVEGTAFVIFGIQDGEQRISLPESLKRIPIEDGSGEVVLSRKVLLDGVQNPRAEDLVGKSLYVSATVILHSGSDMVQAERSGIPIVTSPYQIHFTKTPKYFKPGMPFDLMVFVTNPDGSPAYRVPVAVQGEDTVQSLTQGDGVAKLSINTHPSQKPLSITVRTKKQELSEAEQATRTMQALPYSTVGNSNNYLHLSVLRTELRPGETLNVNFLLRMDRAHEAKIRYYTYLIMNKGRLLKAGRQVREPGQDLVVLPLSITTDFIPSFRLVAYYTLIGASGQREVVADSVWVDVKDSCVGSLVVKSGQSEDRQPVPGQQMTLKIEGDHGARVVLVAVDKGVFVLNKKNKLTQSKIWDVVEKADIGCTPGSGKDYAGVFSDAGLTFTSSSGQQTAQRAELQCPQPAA
T4 sequence (P01024 749-1663 limits assumed, chain 2 of 2): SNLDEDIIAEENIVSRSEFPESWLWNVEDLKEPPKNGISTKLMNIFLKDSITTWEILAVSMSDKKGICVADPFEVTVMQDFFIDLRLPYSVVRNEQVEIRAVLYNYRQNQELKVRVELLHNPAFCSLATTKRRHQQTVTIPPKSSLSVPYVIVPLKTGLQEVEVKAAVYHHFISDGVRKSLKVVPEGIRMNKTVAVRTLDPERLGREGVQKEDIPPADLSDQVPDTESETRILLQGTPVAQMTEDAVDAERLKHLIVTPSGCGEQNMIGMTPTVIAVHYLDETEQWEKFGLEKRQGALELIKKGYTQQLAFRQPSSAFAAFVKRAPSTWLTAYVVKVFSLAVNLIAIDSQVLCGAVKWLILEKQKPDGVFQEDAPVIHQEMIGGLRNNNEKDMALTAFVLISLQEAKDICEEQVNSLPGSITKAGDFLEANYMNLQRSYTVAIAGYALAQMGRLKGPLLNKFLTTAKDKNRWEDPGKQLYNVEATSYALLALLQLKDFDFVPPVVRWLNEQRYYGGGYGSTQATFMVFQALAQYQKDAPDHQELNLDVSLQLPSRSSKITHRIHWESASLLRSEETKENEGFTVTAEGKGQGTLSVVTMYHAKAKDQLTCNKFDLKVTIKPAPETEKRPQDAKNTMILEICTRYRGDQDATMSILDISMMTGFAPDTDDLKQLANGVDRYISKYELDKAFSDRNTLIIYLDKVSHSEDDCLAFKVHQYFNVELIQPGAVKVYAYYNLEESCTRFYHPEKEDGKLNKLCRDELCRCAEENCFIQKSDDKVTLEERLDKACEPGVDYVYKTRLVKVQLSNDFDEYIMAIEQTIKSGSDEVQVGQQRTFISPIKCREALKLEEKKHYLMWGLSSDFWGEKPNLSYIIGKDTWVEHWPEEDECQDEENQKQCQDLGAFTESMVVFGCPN
Procedure: (§3) Binding of FH to C3b, iC3b or C3d in the presence of the anti-FH moAbs was determined by surface plasmon resonance using a Biacore T3000 instrument (GE Healthcare, Little Chalfont, UK). Purified C3b, iC3b or C3d (Complement Technologies) was immobilized onto one of three flow cells of a CM5 Biacore Sensor Chip (GE Healthcare) using standard […] coupling. The remaining flow cell was used as reference surface and prepared by performing a coupling reaction without the addition of any protein. A response of 4400 response units (RUs), 4180 RUs and 1470 RUs was obtained after coupling with C3b, iC3b and C3d, respectively. SPR experiments were performed at 25° C. using a flow rate of 10 μl/min and in 10 mM HEPES-buffered 150 mM saline, pH 7.4, with 0.05% (w/v) Tween-20 (HBS-P). Duplicate injections of 0.5 μM FH with a contact time of 210 seconds were performed to obtain a reference binding signal for FH on each surface. After each sample injection a dissociation time of 240 seconds was allowed, using HBS-P as running buffer, followed by a single 30 seconds injection of 1 M NaCl to regenerate the surface.
To determine the effect of anti-FH.07 without interference of possible cross-linking via the moAb, Fab′ fragments, generated as described above, were used. […]

[6] = target: T4, C3b; assay: SPR, 0.5 µM FH with anti-FH.07 Fab′ (2 to 1 molar ratio) over immobilised C3b
Procedure: as §3, with “After each sample injection a dissociation time of 240 seconds was allowed, using HBS-P as running buffer, followed by a single 30 seconds injection of 1 M NaCl to regenerate the surface.” left out
(§4) In addition, SPR experiments were conducted to study the interaction of FH with C3b, iC3b and C3d in the absence and presence of […] Fab′ fragments. Briefly, three flow cells of a CM5 Biacore Sensor chip were coated with either C3b, iC3b or C3d and interactions of FH with these surfaces in the absence or presence of anti-FH moAb was determined on a Biacore T3000 system.

[7] = target: T5, iC3b (UniProt P01024 23-667; P01024 749-1303; P01024 1321-1663, limits assumed); assay: SPR, 0.5 µM FH with anti-FH.07 Fab′ (2 to 1 molar ratio) over immobilised iC3b
T5 construct: domain: iC3b; also called purified iC3b
T5 sequence (P01024 23-667 limits assumed, chain 1 of 3): as the sequence (P01024 23-667 limits assumed, chain 1 of 2) above
T5 sequence (P01024 749-1303 limits assumed, chain 2 of 3): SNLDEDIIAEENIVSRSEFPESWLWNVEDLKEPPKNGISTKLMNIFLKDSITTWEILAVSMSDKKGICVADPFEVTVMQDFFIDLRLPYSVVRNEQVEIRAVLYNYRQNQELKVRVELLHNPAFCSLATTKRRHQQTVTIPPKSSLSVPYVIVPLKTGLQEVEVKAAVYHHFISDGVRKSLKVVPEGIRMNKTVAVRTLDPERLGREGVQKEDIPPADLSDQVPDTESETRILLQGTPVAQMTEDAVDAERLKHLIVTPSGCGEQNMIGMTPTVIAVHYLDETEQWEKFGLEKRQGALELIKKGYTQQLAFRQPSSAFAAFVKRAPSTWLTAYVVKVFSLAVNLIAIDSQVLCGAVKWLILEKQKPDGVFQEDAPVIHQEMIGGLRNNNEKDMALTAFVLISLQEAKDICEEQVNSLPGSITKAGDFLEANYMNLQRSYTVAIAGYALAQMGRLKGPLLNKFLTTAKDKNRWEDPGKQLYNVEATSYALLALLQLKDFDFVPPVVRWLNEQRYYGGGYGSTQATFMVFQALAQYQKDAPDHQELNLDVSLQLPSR
T5 sequence (P01024 1321-1663 limits assumed, chain 3 of 3): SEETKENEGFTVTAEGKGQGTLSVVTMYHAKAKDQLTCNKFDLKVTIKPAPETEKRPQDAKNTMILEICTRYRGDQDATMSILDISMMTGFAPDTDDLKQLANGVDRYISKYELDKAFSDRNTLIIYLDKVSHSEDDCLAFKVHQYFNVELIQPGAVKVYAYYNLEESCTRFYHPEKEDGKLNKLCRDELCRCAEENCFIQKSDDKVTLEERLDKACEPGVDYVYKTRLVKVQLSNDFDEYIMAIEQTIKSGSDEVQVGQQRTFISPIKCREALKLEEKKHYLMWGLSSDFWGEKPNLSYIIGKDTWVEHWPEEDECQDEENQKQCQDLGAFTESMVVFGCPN
Procedure: as §3, with “After each sample injection a dissociation time of 240 seconds was allowed, using HBS-P as running buffer, followed by a single 30 seconds injection of 1 M NaCl to regenerate the surface.” left out
as §4

B1: monoclonal antibody anti-FH.07 (murine IgG1) (antibody, V domains shown)
VH: QVQLQQSGPGLVQPSQSLSITCTVSDFSLARYGVHWIRQSPGKGLEWLGVIWSGGTADYNAAFISRLNINKDNSKSQVFFKMNSLQANDTAIYYCARNFGNYAVDYWGQGTS
VL: QIVLSQSPTFLSASPGEKVTVTCRASSSVKYMHWYQQKPGASPKPWIFATSNLASGVPARFSGSGSGTSYSLTISRVEAEDAATYYCQQWSIIPPTFGNGTKLELK
notes: Captured with rat anti-mouse kappa RM19; also called intact IgG; intact antibody
binding result [1]: binds
binding result [2]: binds
binding result [3]: binds
binding result [4]: binds

Binder: B4
fold increase of the measured interactions (RU) with anti-FH.07 Fab′ against FH alone [6]: ≥ 2 fold
fold increase of the measured interactions (RU) with anti-FH.07 Fab′ against FH alone [7]: ≥ 2 fold

The remaining lines, values ahead:

binding result [5]: no binding
B2: Fab′ fragments of anti-FH.07 (Fab, V domains shown)
VH: QVQLQQSGPGLVQPSQSLSITCTVSDFSLARYGVHWIRQSPGKGLEWLGVIWSGGTADYNAAFISRLNINKDNSKSQVFFKMNSLQANDTAIYYCARNFGNYAVDYWGQGTS
VL: QIVLSQSPTFLSASPGEKVTVTCRASSSVKYMHWYQQKPGASPKPWIFATSNLASGVPARFSGSGSGTSYSLTISRVEAEDAATYYCQQWSIIPPTFGNGTKLELK
modifications: free thiol groups blocked with iodoacetamide after reduction with dithioerythritol
notes: also called anti-FH.07 Fab′

binding result [1]: binds
B3: F(ab′)2 fragments of anti-FH.07 (other)
VH: QVQLQQSGPGLVQPSQSLSITCTVSDFSLARYGVHWIRQSPGKGLEWLGVIWSGGTADYNAAFISRLNINKDNSKSQVFFKMNSLQANDTAIYYCARNFGNYAVDYWGQGTS
VL: QIVLSQSPTFLSASPGEKVTVTCRASSSVKYMHWYQQKPGASPKPWIFATSNLASGVPARFSGSGSGTSYSLTISRVEAEDAATYYCQQWSIIPPTFGNGTKLELK
notes: also called anti-FH.07 F(ab′)2

From patent US20190194304A1 (STICHTING SANQUIN BLOEDVOORZIENING, published 2019)
